Test results from the supplement of paper PMC10567573.

B1: PLAGL1 (parent)
chain: EKPPSGTKEKKHQCDHCERCFYTR

Variants of: B1
Assay: protein stability index of a GFP-peptide fusion (GPS, HEK-293T) (PSI 1-6); higher = more stable
Settings: c terminus: a fixed tail appended
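Note: lentivirally expressed fusions sorted by FACS into six bins by GFP to DsRed ratio, PSI derived from sequencing read proportions per bin multiplied by bin number.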

Variant | protein stability index
TKPPSGTKEKKHQCDHCERCFYTR [E1T] | 3.36
EKPPSGRKEKKHQCDHCERCFYTR [T7R] | 3.44
EKPPSGIKEKKHQCDHCERCFYTR [T7I] | 4.11
EKPPSGMKEKKHQCDHCERCFYTR [T7M] | 3.56
EKPPSGNKEKKHQCDHCERCFYTR [T7N] | 3.6
EKPPSGPKEKKHQCDHCERCFYTR [T7P] | 3.74
EKPPSGDKEKKHQCDHCERCFYTR [T7D] | 3.77
EKPPSGLKEKKHQCDHCERCFYTR [T7L] | 3.67
EKPPSGKKEKKHQCDHCERCFYTR [T7K] | 3.28
EKPPSGEKEKKHQCDHCERCFYTR [T7E] | 3.79
EKPPSGSKEKKHQCDHCERCFYTR [T7S] | 3.54
EKPPSGFKEKKHQCDHCERCFYTR [T7F] | 3.91
EKPPSGYKEKKHQCDHCERCFYTR [T7Y] | 3.27
EKPPSGWKEKKHQCDHCERCFYTR [T7W] | 3.17
EKPPSGQKEKKHQCDHCERCFYTR [T7Q] | 3.82
EKPPSGVKEKKHQCDHCERCFYTR [T7V] | 4.06
EKPPSGCKEKKHQCDHCERCFYTR [T7C] | 4.29
EKPPSGAKEKKHQCDHCERCFYTR [T7A] | 3.44
EKPPSGGKEKKHQCDHCERCFYTR [T7G] | 3.69
EKPPSGHKEKKHQCDHCERCFYTR [T7H] | 3.85
EKPPIGTKEKKHQCDHCERCFYTR [S5I] | 3.97
EKPPCGTKEKKHQCDHCERCFYTR [S5C] | 3.72
EKPPLGTKEKKHQCDHCERCFYTR [S5L] | 3.75
EKPPNGTKEKKHQCDHCERCFYTR [S5N] | 3.79

Variant | protein stability index
EKPPWGTKEKKHQCDHCERCFYTR [S5W] | 3.1
EKPPMGTKEKKHQCDHCERCFYTR [S5M] | 3.48
EKPPPGTKEKKHQCDHCERCFYTR [S5P] | 3.54
EKPPAGTKEKKHQCDHCERCFYTR [S5A] | 3.17
EKPPRGTKEKKHQCDHCERCFYTR [S5R] | 3.29
EKPPFGTKEKKHQCDHCERCFYTR [S5F] | 3.19
EKPPDGTKEKKHQCDHCERCFYTR [S5D] | 4.16
EKPPTGTKEKKHQCDHCERCFYTR [S5T] | 3.34
EKPPQGTKEKKHQCDHCERCFYTR [S5Q] | 3.42
EKPPHGTKEKKHQCDHCERCFYTR [S5H] | 3.83
EKPPKGTKEKKHQCDHCERCFYTR [S5K] | 3.88
EKPPYGTKEKKHQCDHCERCFYTR [S5Y] | 3.57
EKPPEGTKEKKHQCDHCERCFYTR [S5E] | 3.72
EKPPVGTKEKKHQCDHCERCFYTR [S5V] | 3.83
EKPPGGTKEKKHQCDHCERCFYTR [S5G] | 3.53
EKPPSGTKEEKHQCDHCERCFYTR [K10E] | 4.42
EKPPSGTKECKHQCDHCERCFYTR [K10C] | 4.3
EKPPSGTKEDKHQCDHCERCFYTR [K10D] | 4.05
EKPPSGTKEIKHQCDHCERCFYTR [K10I] | 3.77
EKPPSGTKESKHQCDHCERCFYTR [K10S] | 3.96
EKPPSGTKENKHQCDHCERCFYTR [K10N] | 3.76
EKPPSGTKEPKHQCDHCERCFYTR [K10P] | 4.16
EKPPSGTKELKHQCDHCERCFYTR [K10L] | 4.04
EKPPSGTKEQKHQCDHCERCFYTR [K10Q] | 3.53

Variant | protein stability index
EKPPSGTKEGKHQCDHCERCFYTR [K10G] | 3.91
EKPPSGTKEMKHQCDHCERCFYTR [K10M] | 3.76
EKPPSGTKEVKHQCDHCERCFYTR [K10V] | 3.9
EKPPSGTKEFKHQCDHCERCFYTR [K10F] | 3.42
EKPPSGTKEAKHQCDHCERCFYTR [K10A] | 3.87
EKPPSGTKEHKHQCDHCERCFYTR [K10H] | 4.05
EKPPSGTKETKHQCDHCERCFYTR [K10T] | 3.78
EKPPSGTKERKHQCDHCERCFYTR [K10R] | 3.43
ERPPSGTKEKKHQCDHCERCFYTR [K2R] | 3.27
EPPPSGTKEKKHQCDHCERCFYTR [K2P] | 4.08
ECPPSGTKEKKHQCDHCERCFYTR [K2C] | 3.62
EFPPSGTKEKKHQCDHCERCFYTR [K2F] | 3.44
ENPPSGTKEKKHQCDHCERCFYTR [K2N] | 4.05
EYPPSGTKEKKHQCDHCERCFYTR [K2Y] | 3.17
EAPPSGTKEKKHQCDHCERCFYTR [K2A] | 3.94
ESPPSGTKEKKHQCDHCERCFYTR [K2S] | 3.95
EMPPSGTKEKKHQCDHCERCFYTR [K2M] | 2.93
ETPPSGTKEKKHQCDHCERCFYTR [K2T] | 3.52
EEPPSGTKEKKHQCDHCERCFYTR [K2E] | 3.9
EVPPSGTKEKKHQCDHCERCFYTR [K2V] | 3.86
EDPPSGTKEKKHQCDHCERCFYTR [K2D] | 4.26
EWPPSGTKEKKHQCDHCERCFYTR [K2W] | 3.67
EGPPSGTKEKKHQCDHCERCFYTR [K2G] | 3.44
ELPPSGTKEKKHQCDHCERCFYTR [K2L] | 3.32

Variant | protein stability index
EQPPSGTKEKKHQCDHCERCFYTR [K2Q] | 4.12
EIPPSGTKEKKHQCDHCERCFYTR [K2I] | 3.72
EHPPSGTKEKKHQCDHCERCFYTR [K2H] | 3.65
EKPPSGTKCKKHQCDHCERCFYTR [E9C] | 4.63
EKPPSGTKVKKHQCDHCERCFYTR [E9V] | 3.37
EKPPSGTKAKKHQCDHCERCFYTR [E9A] | 3.67
EKPPSGTKPKKHQCDHCERCFYTR [E9P] | 3.52
EKPPSGTKWKKHQCDHCERCFYTR [E9W] | 3.08
EKPPSGTKMKKHQCDHCERCFYTR [E9M] | 2.85
EKPPSGTKLKKHQCDHCERCFYTR [E9L] | 3
EKPPSGTKTKKHQCDHCERCFYTR [E9T] | 3.51
EKPPSGTKSKKHQCDHCERCFYTR [E9S] | 3.32
EKPPSGTKGKKHQCDHCERCFYTR [E9G] | 3.75
EKPPSGTKHKKHQCDHCERCFYTR [E9H] | 3.37
EKPPSGTKQKKHQCDHCERCFYTR [E9Q] | 3.77
EKPPSGTKDKKHQCDHCERCFYTR [E9D] | 3.96
EKPPSGTKKKKHQCDHCERCFYTR [E9K] | 2.9
EKPPSGTKRKKHQCDHCERCFYTR [E9R] | 2.52
EKPPSGTKFKKHQCDHCERCFYTR [E9F] | 3.26
EKPPSGTKIKKHQCDHCERCFYTR [E9I] | 3.27
EKPPSGTKYKKHQCDHCERCFYTR [E9Y] | 2.6
EKPPSGTKNKKHQCDHCERCFYTR [E9N] | 3.25
